Series [1] concerns the target T1, Aβ40 (Homo sapiens, UniProt P05067).
T1 construct: Aβ40 peptide was expressed and purified as described previously; made in house; host or cells: E. coli BL21 (DE3)
Description: Transmission electron microscopy of Aβ40 reaction endpoint. The note with it: reaction endpoint at 20 h, equimolar NAC. Type of series: biochemical. As to the method: After 20 h, samples were taken from the Thioflavin T plate and fixed on carbon coated copper grids, made in house. The samples were negative stained with 2% (w/v) uranyl acetate. The samples were imaged on a JEOL 1400 TEM at the Astbury structural biology laboratory, University of Leeds.

For series [2], the target named is T2, mutant Huntingtin exon 1 (mHttQ51) (Homo sapiens, UniProt P42858, INS38QQQQQQQQQQQQQQQQQQQQQQQQQQQQQQQ).
T2 construct: mutant Huntingtin exon 1 containing a pathogenic stretch of 51 glutamines (mHttQ51); GST (N, cleaved yes); made in house; host or cells: E. coli Rosetta 2(DE3) pLysS
Description: In vitro filter trap aggregation assay of mutant Huntingtin exon 1. Type of series: biochemical. As to conditions: 5× molar excess; 3 μM mHttQ51; filter trap, SDS-insoluble aggregates. The procedure:
(§1) Mutant Huntingtin and PolyQ51 aggregation reactions were performed at concentration 3 μM of mHttQ51, 0.044 Units/μl acTEV protease (Invitrogen, Carlsbad, CA, USA), and respective concentrations of Ovalbumin (Sigma) or purified NAC chaperone variants. Aggregation was conducted in TEV reaction buffer (Invitrogen) and incubated at 30° C. AtxQ78 was buffer exchanged into TEV reaction buffer using 7K MWCO Zeba Spin Desalting Columns (Thermo Fisher) to initiate aggregation. AtxQ78 aggregation reactions were performed at 30 μM of Ataxin-3 in reaction buffer (20 mM sodium phosphate pH 7.5, 25 mM NaCl, 6 mM MgCl2, 2 mM DTT, 5% (v/v) glycerol) and incubated at 37° C. Samples at varied time-points were then taken and combined in a 1:1 ratio with a 4% (w/v) SDS, 100 mM DTT solution, boiled for 5 min at 95° C., and stored at −20° C. Samples were then filtered through a 0.22 μm cellulose acetate membrane (Whatman) and washed with 0.1% (w/v) SDS. Membrane was probed using an S-tag antibody (Abcam) for mHttQ51 and PolyQ51, and with a His-tag antibody (Abcam) for AtxQ78.

Series [3] deals with T1, Aβ40. Put plainly: Thioflavin T fluorescence assay of Aβ40 aggregation. Type of series: biochemical. As to conditions: equimolar NAC variant and Aβ40 (32 μM FIG. 4C; 18 μM FIG. 12C), 37° C., 20 h. The procedure:
Lyophilized Aβ40 was resuspended at 320 μM in 20 mM sodium phosphate pH 7.4, 0.2 mM EDTA, 0.01% (w/v) sodium azide and stored on ice. The NAC proteins were diluted to 100 μM in storage buffer (20 mM sodium phosphate pH 7.5, 25 mM NaCl, 6 mM MgCl2, 2 mM β-mercaptoethanol, 5% (v/v) glycerol) and buffer exchanged into 20 mM sodium phosphate pH 7.4, 0.2 mM EDTA, 0.01% (w/v) sodium azide, 1× complete mini protease inhibitor, EDTA free (Roche) by means of ZebaSpin 7 kDa MWCO spin columns (Thermo Scientific). Samples were prepared that contained equimolar concentrations of Aβ40 and NAC variants. Thioflavin T was added to a final concentration of 10 μM. The samples were transferred to a 96 well half-area clear bottom microplate (Corning GmbH, Wiesbaden, Germany), with 95 μL of sample in each well. The fluorescence (excitation: 440 nm, emission: 480 nm) was measured using a BMG Omega plate reader (BMG Labtech) incubating samples at 37° C., quiescently.

The next series concerns the target T3, AtxQ78 (Homo sapiens, UniProt P54252, INS305QQQQQQQQQQQQQQQQQQQQQQQQQQQQQQQQQQQQQQQQQQQQQQQQQQQQQQQQQQQQQQQQ).
T3 construct: full-length Ataxin-3 harboring a stretch of 78 glutamines (AtxQ78); made in house
Put plainly: Chemical crosslinking (BS3) and mass spectrometry of NAC-AtxQ78 complexes. Type of series: binding. As to conditions: NAC and AtxQ78 1:1, BS3 crosslinker, LC-MS. As to the method:
For crosslinking AtxQ78 was buffer exchanged into 10 mM sodium phosphate (pH 7.2) and added to NAC at a 1:1 ratio (20 μM NAC+20 μM AtxQ78). A 1:1 mixture of BS^3-d^0 and BS^3-d^4 was added to the proteins at 20× and 50× molar excess and the reaction allowed to proceed at room temperature for 1 hour before quenching with the addition of 50 mM Tris-Cl (pH 7.5). Samples were diluted with 2× loading buffer and separated on Tris-tricine gels followed by staining with InstantBlue (Expedeon).
Gel pieces containing the crosslinked complexes were washed with 25 mM ammonium bicarbonate (pH 7.8) for 1 h with shaking. The solution was removed and the pieces destained three times with 25 mM ammonium bicarbonate in 60% acetonitrile. Gel pieces were dehydrated with 100% acetonitrile for 10 min and left to air-dry in a laminar flowhood for 1 h. Rehydration of the gel pieces was achieved by adding 0.1 mg/ml trypsin solution and incubating the samples on ice for 30 min. Excess trypsin was removed and the samples were incubated at 37° C. and 1000 rpm overnight. Peptides were extracted from the gel using 3 washes with 60% acetonitrile/5% formic acid. The extracts were pooled and concentrated using a SpeedVac before being analyzed using a nanoACQUITY LC-system coupled to a Synapt HDMS G2Si mass spectrometer. […]

The next series relates to PolyQ51. Description: In vitro filter trap aggregation assay of PolyQ51. Type of series: biochemical. As to conditions: 5× molar excess, SDS-insoluble aggregates. As to the method:
as §1

The target in series [4] is GdmCl-denatured firefly luciferase (Photinus pyralis, UniProt P08659). Put plainly: Luciferase refolding assay. Type of series: biochemical.
In series [5] the target is T4, full-length Ataxin-3 (AtxQ78) (Homo sapiens, UniProt P54252, INS305QQQQQQQQQQQQQQQQQQQQQQQQQQQQQQQQQQQQQQQQQQQQQQQQQQQQQQQQQQQQQQQQ).
T4 construct: full-length Ataxin-3 harboring a stretch of 78 glutamines (AtxQ78); made in house
Put plainly: Filter trap aggregation assay of AtxQ78. The note with it: equimolar (1×) NAC, 37° C. Type of series: biochemical. The procedure:
as §1

The next series concerns PolyQ35::YFP. Put plainly: PolyQ35::YFP aggregation in C. elegans overexpressing NAC (fluorescence microscopy, SDD-AGE). Type of series: in vivo. As to conditions: overexpressed in body wall muscle cells (myo-3 promoter), day 3 of adulthood, fluorescence microscopy. The source says:
NAC is a major ribosome-binding factor interacting broadly with nascent chains (del Alamo et al., 2011). However, its assumed chaperone function is poorly investigated. […] Although loss of NAC causes pleiotropic defects in C. elegans (Gamerdinger et al., 2015), this finding raises the possibility that NAC directly exerts a chaperone function on aggregation-prone proteins. In this case, overexpression of NAC should prevent aggregation of PolyQ proteins in vivo. Therefore, we used a C. elegans strain expressing 35 consecutive glutamine residues fused to YFP (PolyQ35::YFP) in body wall muscle cells. This PolyQ length is close to the aggregation threshold in C. elegans muscle cells, leading to progressive, age-dependent aggregation starting at day 2 of adulthood (Morley et al., 2002). We generated transgenic animals that overexpress FLAG-tagged α- and βNAC under the control of the muscle-specific myo-3 promoter. PolyQ aggregation was assessed at day 3 of adulthood by fluorescence microscopy as well as semi-denaturing detergent agarose gel electrophoresis (SDD-AGE), which detects high molecular weight oligomeric PolyQ species (Halfmann and Lindquist, 2008). […] This is evident by magnification of the head regions showing diffuse PolyQ35::YFP and less punctate PolyQ35::YFP structures when NAC was overexpressed (FIG. 1A, head region images). […] To directly test the potential chaperone function of NAC, we employed a peptide composed of 51 consecutive glutamines (PolyQ51) as a model substrate in a well-established in vitro aggregation assay. We initiated aggregation of PolyQ51 by cleaving a solubilizing GST tag with TEV protease and detected aggregates over time using a filter trap assay.
Worms were cultured according to standard techniques with E. coli OP50 as food source (Brenner, 1974). Transgenic strains were generated using standard microinjection protocols (Mello and Fire, 1995). […]

Series [6] deals with PolyQ35::YFP C. elegans worms. Put plainly: Paralysis assay. Type of series: in vivo. As to conditions: overexpression; day 6 to 10 of adulthood. As to the method: To analyze the percentage of paralyzed worms, 100 semi-synchronized (timed egg lay for 5 h) young adult worms of each strain were placed on a plate containing 150 μM 5-fluorodeoxyuridine. Screening of paralyzed worms was started at day 6 of adulthood.

GdmCl-denatured firefly luciferase, sequence (P08659 whole entry): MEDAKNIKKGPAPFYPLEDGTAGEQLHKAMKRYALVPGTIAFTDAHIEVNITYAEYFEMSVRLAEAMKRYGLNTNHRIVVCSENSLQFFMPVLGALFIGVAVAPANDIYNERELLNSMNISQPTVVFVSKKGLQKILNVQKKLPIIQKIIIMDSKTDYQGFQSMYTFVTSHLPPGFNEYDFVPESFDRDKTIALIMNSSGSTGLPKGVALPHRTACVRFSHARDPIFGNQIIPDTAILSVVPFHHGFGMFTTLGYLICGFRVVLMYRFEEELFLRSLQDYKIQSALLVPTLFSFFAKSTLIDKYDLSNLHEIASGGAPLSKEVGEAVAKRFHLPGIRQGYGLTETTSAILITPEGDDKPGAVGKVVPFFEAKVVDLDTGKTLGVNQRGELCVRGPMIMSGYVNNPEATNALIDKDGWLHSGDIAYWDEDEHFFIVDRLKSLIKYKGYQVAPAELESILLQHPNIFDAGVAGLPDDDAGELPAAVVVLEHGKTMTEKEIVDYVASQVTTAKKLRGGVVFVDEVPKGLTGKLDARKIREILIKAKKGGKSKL
T2 sequence (P42858 with tags, fused parts or gaps with the stated changes limits assumed): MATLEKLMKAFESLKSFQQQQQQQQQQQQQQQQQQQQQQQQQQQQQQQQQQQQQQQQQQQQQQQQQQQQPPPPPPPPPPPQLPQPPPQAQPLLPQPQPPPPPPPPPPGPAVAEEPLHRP
T3 sequence (P54252 with tags, fused parts or gaps with the stated changes): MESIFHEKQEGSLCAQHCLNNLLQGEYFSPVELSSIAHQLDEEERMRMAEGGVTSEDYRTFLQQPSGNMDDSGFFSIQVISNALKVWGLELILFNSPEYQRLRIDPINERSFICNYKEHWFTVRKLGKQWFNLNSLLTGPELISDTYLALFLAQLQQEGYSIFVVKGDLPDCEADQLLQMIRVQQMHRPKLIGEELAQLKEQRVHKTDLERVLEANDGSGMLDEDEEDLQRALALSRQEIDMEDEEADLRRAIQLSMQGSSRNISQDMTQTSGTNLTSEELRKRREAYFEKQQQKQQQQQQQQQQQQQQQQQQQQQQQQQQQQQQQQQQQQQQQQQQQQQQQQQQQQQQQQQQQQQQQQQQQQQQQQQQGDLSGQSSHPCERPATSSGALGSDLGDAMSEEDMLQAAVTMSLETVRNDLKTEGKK
T4 sequence (P54252 with tags, fused parts or gaps with the stated changes): as above

B1: human NAC: purified recombinant human nascent polypeptide-associated complex (αNAC and βNAC 1:1) (protein)
chain 1: MTGSTETRQKEVKEPQVDVSDDSDNEAVEQELTEEQRRVAEAAGLGDHIDKQAKQSRSEKKARKLFSKLGLKQVTGVSRVCIRKSKNILFVINKPDVFKSPGSDTYIIFGEAKIEDLTQHAQMSAIENLKPTREAPQLKTVEEDENEDVEEDSTGIEEKDIELVISQANTTRNKAIRALKEADNDIVNAIMSLTM
chain 2: MMDSKAIAERIKKLQAQQEHVRIGGKGTPRRKKKVIHKTAAADDKKLQSNLKKLSVTNIPGIEEVNMIKDDGTVIHFNNPKVQTSVPANTFSVTGSADNKQITEMLPGILNQLGPESLTHLKKLANNVTKLGPDGKGEDEDVPELVGDFDAASKNETKADEQ
As for B1, in the series with Aβ40 [1], the “Aβ40 fibril formation (electron microscopy)” value was “completely suppressed Aβ40 aggregation and fibril formation”. Also, the mHttQ51 aggregation result in series [2] is listed as “effectively suppressed aggregation”. For the same molecule, the “Aβ40 aggregation (ThT fluorescence)” value with Aβ40 [3] is listed as “completely suppressed Aβ40 aggregation”. In addition, in the series with AtxQ78, the “identified intermolecular crosslinks to the C-terminal region of AtxQ78 close to the expanded PolyQ stretch” value was 11 out of 18. For the same molecule, the “accumulation of PolyQ51 aggregates” value with PolyQ51 is reported as “strongly delayed the accumulation of PolyQ51 aggregates”. The luciferase refolding result in series [4] (NAC added to the Hsp70/Hsp40 system (3.2 μM/0.8 μM), no preincubation) was “did not enhance luciferase refolding”; in [4] (NAC alone, absence of Hsp70/Hsp40, luciferase 0.02 μM, equimolar NAC), “had no effect on luciferase refolding”. Further, the AtxQ78 aggregation result in series [5] is on record as “delayed the aggregation of AtxQ78”.

B2: RRK/AAA-NAC: NAC with mutation in the conserved ribosome-binding motif in the N-terminus of βNAC; ribosome-binding deficient (protein)
chain 1: MTGSTETRQKEVKEPQVDVSDDSDNEAVEQELTEEQRRVAEAAGLGDHIDKQAKQSRSEKKARKLFSKLGLKQVTGVSRVCIRKSKNILFVINKPDVFKSPGSDTYIIFGEAKIEDLTQHAQMSAIENLKPTREAPQLKTVEEDENEDVEEDSTGIEEKDIELVISQANTTRNKAIRALKEADNDIVNAIMSLTM
chain 2: MDSKAIAERIKKLQAQQEHVRIGGKGTPAAAKKVIHKTAAADDKKLQSNLKKLSVTNIPGIEEVNMIKDDGTVIHFNNPKVQTSVPANTFSVTGSADNKQITEMLPGILNQLGPESLTHLKKLANNVTKLGPDGKGEDEDVPELVGDFDAASKNETKADEQ
For B2, the “PolyQ35::YFP aggregation” value with PolyQ35::YFP is on record as “suppressed PolyQ35::YFP aggregation similarly to WT-NAC”. Besides, the mHttQ51 aggregation entry in [2] is “delayed mHttQ51 aggregation similar to wild-type NAC”. In the series with Aβ40 [3], the “Aβ40 aggregation (ThT fluorescence)” value is “fully suppressed Aβ40 aggregation”. Further, the “motility / age-associated paralysis of PolyQ35::YFP-expressing worms” value in series [6] was “still improved motility during aging albeit less effective than WT-NAC”.

Values taken from patent publication US12338268B2, “Compositions and methods for treating protein aggregation-associated diseases” (The Board of Trustees of the Leland Stanford Junior …, priority 2019, dated 2025).
